The values below are quoted from earlier work in publication PMC3931689.

In this series the target is Protein phosphatase 1 (Mus musculus) (UniProt P62137).
Sequence of UniProt P62137 (P62137 2-330): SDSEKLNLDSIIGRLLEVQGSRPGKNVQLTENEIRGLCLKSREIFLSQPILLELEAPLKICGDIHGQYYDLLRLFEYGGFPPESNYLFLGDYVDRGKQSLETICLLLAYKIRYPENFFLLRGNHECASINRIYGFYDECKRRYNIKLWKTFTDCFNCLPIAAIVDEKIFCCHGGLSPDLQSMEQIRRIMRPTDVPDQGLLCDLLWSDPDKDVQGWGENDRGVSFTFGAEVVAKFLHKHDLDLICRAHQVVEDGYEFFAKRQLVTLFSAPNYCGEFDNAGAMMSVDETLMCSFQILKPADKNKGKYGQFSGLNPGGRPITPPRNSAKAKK

Regarding Inhibitor-1 (from UniProt Q9ERT9), the Ki (commonly the dissociation constant of the complex between target and ligand, obtained from inhibition or displacement) was 1 nM.
